The results in this text go back to US8026218 (UNIVERSITY OF ARIZONA, dated 2011).

The Ki is a measure of affinity in units of concentration, obtained from inhibition or displacement. High values mean a looser hold on the target, low ones a stronger hold on the target.

B1: DmtDAlaGlyPheNleProLeuTrpNHBn-2,4-(OMe)2 (TY054) (peptide)
peptide: YAGFXPLW
modifications: not fully specified; Dmt at 1; D-Ala at 2; Nle at 5 (X); C-terminal NH-Bn-2,4-(OMe)2 amide
B2: DmtDAlaGlyPheNleProLeuTrpNHBn(CF3)2 (TY050) (peptide)
peptide: YAGFXPLW
modifications: Dmt (2',6'-dimethyl-L-tyrosine) at 1; D-Ala at 2; Nle at 5 (X); C-terminal NH-3,5-Bn(CF3)2 amide

Bridge positions count the residues as written; N and C are the ends. Square brackets hold non-standard residues; d marks the D form. Primed or numbered codes have the meaning given here. Ends that are not written are not given here. * marks the point of attachment. NHBn(CF3)2 = C-terminal amide NH-Bn(CF3)2, a benzyl group carrying two CF3; NMe‑Bn(CF3)2 = C-terminal N-methyl bis(trifluoromethyl)benzyl amide; NH(3,5-(CF3)2-benzyl) = FC(F)(F)c1cc(CN*)cc(C(F)(F)F)c1; OBzl(3,5-(CF3)2) = FC(F)(F)c1cc(CO*)cc(C(F)(F)F)c1; Glc″ = glucosyl on the serine side-chain oxygen; NH‑Bn(CF3)2 = C-terminal Bn(CF3)2 amide; NMe(benzyl) = CN(Cc1ccccc1)*; Nle = CCCC[C@H](N)C(=O)O; NHBn = c1ccc(CN*)cc1; OBn = c1ccc(CO*)cc1

T3 sequence (P25103 whole entry): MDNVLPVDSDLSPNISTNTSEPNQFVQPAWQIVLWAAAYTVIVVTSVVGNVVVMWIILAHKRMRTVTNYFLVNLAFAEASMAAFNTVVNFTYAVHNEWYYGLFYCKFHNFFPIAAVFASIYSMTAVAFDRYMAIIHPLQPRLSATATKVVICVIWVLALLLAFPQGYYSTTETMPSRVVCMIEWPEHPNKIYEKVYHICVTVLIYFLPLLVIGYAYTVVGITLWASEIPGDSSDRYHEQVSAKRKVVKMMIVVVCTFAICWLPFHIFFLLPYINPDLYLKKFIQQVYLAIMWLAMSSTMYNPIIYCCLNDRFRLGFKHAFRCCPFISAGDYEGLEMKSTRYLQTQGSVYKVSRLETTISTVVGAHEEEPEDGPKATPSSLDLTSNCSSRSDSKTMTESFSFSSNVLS
Chain of µ opioid receptor of the guinea pig isolated ileum (P97266 whole entry): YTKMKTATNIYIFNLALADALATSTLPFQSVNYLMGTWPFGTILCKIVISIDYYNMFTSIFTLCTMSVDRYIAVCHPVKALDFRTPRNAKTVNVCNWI

One test deals with T1, rat µ opioid receptor (rat, UniProt P33535 1-398). The test can be described thus: cell-based or functional assay.
T1 sequence (P33535 whole entry): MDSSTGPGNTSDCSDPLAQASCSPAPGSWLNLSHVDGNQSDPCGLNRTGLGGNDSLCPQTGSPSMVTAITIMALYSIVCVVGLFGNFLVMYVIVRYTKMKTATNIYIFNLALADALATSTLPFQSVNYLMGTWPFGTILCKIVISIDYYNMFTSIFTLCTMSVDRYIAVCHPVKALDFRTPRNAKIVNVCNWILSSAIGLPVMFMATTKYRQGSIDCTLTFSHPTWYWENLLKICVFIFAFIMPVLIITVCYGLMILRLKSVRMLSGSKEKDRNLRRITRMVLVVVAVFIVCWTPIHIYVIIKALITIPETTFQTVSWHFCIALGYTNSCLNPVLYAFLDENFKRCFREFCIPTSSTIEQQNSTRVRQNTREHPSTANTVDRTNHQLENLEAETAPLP
On to Y[dA]GFM[dP]LW-{OBzl(3,5-(CF3)2)} [TyrDAlaGlyPheMetDProLeuTrpOBn(CF3)2 (TY024)], for which the “GTP binding rMOR EC50” value came out at 123 nM and the “GTP binding rMOR Emax” value is 28%.

For the molecule Y[dA]GF[Nle]S(Glc″)LW-{NH‑Bn(CF3)2} [TyrDAlaGlyPheNleSer(OGlu)LeuTrpNHBn(CF3)2 (TY044)], the “GTP binding rMOR EC50” value worked out at 380 nM and the “GTP binding rMOR Emax” value came to 85%.

A further test concerns the target µ opioid receptor of the guinea pig isolated ileum (guinea pig, UniProt P97266 1-98). The test can be described thus: cell-based or functional assay.
Regarding Y[dC]GF[dC]PLW-{NH(3,5-(CF3)2-benzyl)} (disulfide 2-5) [Tyr[DCysGlyPheDCys]ProLeuTrpNHBn(CF3)2 (TY037)], the “GPI/LMMP opioid(mu) agonist IC50” value was found to be 284 nM.

As for Y[dC]GF[Nle]P[dC]W-{NH(3,5-(CF3)2-benzyl)} (disulfide 2-7) [Tyr[DCysGlyPheNleProDCys]TrpNHBn(CF3)2 (TY038)], the “GPI/LMMP opioid(mu) agonist IC50” value was determined as 3 % at 1 uM.

The target of a further test is guinea pig NK1 receptor (guinea pig, UniProt P30547 1-407). The test can be described thus: cell-based or functional assay.
Chain of guinea pig NK1 receptor (P30547 whole entry): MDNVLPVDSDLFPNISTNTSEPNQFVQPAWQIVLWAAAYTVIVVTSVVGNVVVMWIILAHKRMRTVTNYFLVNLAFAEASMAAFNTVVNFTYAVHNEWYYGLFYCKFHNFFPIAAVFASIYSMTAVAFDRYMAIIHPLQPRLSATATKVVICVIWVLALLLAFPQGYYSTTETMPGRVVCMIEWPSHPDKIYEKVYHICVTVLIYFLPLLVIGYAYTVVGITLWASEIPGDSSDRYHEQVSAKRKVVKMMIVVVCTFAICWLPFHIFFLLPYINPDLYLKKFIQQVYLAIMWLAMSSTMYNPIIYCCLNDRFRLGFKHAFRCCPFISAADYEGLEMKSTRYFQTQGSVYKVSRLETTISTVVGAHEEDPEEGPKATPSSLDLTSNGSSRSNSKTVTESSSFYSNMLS
In the case of Y[dC]GF[dC]PLW-{NH(3,5-(CF3)2-benzyl)} (disulfide 2-5) [Tyr[DCysGlyPheDCys]ProLeuTrpNHBn(CF3)2 (TY037)], the “GPI/LMMP SP antagonist Ke” value was 4.7 nM.

For Y[dC]GF[Nle]P[dC]W-{NH(3,5-(CF3)2-benzyl)} (disulfide 2-7) [Tyr[DCysGlyPheNleProDCys]TrpNHBn(CF3)2 (TY038)], the “GPI/LMMP SP antagonist Ke” value stood at 12 nM.

For a further test, the target named is T1, rat µ opioid receptor. The test can be described thus: radioligand competition vs [3H]DAMGO, membranes of rMOR cells.
The molecule Y[dA]GF[Nle]S(Glc″)LW-{NH‑Bn(CF3)2} [TyrDAlaGlyPheNleSer(OGlu)LeuTrpNHBn(CF3)2 (TY044)] gave a Ki of 3370 nM.

Take MPLW-{NHBn(CF3)2} [MetProLeuTrpNHBn(CF3)2 (TY051)]: the affinity corresponds to a Ki of 866 nM.

The target of a further test is T2, human δ opioid receptor (human, UniProt P41143 1-372).
T2 construct: whole, on cells; Used as crude membrane preparations of the transfected cells; also called hDOR; DOR
T2 sequence (P41143 whole entry, stated change not applied): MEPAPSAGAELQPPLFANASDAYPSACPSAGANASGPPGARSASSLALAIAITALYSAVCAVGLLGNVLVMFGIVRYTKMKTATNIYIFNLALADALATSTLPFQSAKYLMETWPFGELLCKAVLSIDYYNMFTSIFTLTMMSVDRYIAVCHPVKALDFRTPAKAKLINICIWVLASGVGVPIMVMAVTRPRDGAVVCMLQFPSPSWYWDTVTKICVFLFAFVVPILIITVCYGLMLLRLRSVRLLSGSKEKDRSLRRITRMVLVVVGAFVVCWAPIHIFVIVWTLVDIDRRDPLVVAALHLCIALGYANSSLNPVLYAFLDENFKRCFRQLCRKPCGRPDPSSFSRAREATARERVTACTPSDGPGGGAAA
As to the kind of experiment: radioligand competition vs [3H]DPDPE, membranes of hDOR cells.
As to Y[dA]GFM[dP]LW-{OBzl(3,5-(CF3)2)} [TyrDAlaGlyPheMetDProLeuTrpOBn(CF3)2 (TY024)], affinity was put at a Ki of 13.2 nM.

B1 displayed a Ki of 0.15 nM.

In the case of YAGFXPLW (Dmt at 1; D-Ala at 2; Nle at 5 (X); C-terminal NMe-3,5-Bn(CF3)2 amide) [DmtDAlaGlyPheNleProLeuTrpNMeBn(CF3)2 (TY052)], the Ki was determined as 0.46 nM.

The molecule YAGFXPLW (Dmt at 1; D-Ala at 2; Nle at 5 (X); C-terminal NH-Bn-3-(CF3) amide) [DmtDAlaGlyPheNleProLeuTrpNHBn-3-(CF3) (TY053)] gave a Ki of 4.1 nM.

A further test has as its target T3, human NK1 receptor (human, UniProt P25103 1-407).
T3 construct: whole, on cells; Used as membrane preparations of transfected CHO cells; also called hNK1; human neurokinin-1 receptor
The test can be described thus: radioligand competition vs [3H]substance P, membranes of hNK1 CHO cells. In general terms: Displacement assays read how much labelled ligand stays bound in the presence of the test substance.
For the molecule Y[dA]GFPLW-{NMe(benzyl)} [TyrDAlaGlyPheProLeuTrpNMeBn (TY010)], the Ki is 100 nM.

B1 came in with a Ki of 0.952 nM.

In turn, Y[dA]GFPLW-NHBn [TyrDAlaGlyPheProLeuTrpNHBn (TY008)] had a Ki of 14 nM.

Consider B2, for which the Ki came out at 0.075 nM.

In turn, Y[dA]GFPLW-{NH(3,5-(CF3)2-benzyl)} [TyrDAlaGlyPheProLeuTrpNHBn(CF3)2 (TY012)] registered a Ki of 0.61 nM.

Turning to Y[dA]GF[Nle]S(Glc″)LW-{NH‑Bn(CF3)2} [TyrDAlaGlyPheNleSer(OGlu)LeuTrpNHBn(CF3)2 (TY044)], the Ki came out at 1.3 nM.

Take YAGFXPLW (Dmt at 1; D-Ala at 2; Nle at 5 (X); C-terminal NMe-3,5-Bn(CF3)2 amide) [DmtDAlaGlyPheNleProLeuTrpNMeBn(CF3)2 (TY052)]: the affinity corresponds to a Ki of 0.21 nM.

Take Y[dA]GFPLW-{OBzl(3,5-(CF3)2)} [TyrDAlaGlyPheProLeuTrpOBn(CF3)2 (TY001)]: the Ki is 0.0023 nM.

Y[dA]GFM-NH2 [TyrDAlaGlyPheMetNH2 (TY040)] returned a Ki of 145 nM.

MPLW-{NHBn(CF3)2} [MetProLeuTrpNHBn(CF3)2 (TY051)] displayed an inhibitory constant (Ki) of 0.922 nM.

The molecule YAGFXPLW (Dmt at 1; D-Ala at 2; Nle at 5 (X); C-terminal NH-Bn-3-(CF3) amide) [DmtDAlaGlyPheNleProLeuTrpNHBn-3-(CF3) (TY053)] came in with a Ki of 1.04 nM.

The target of the next test is T4, rat NK1 receptor (rat, UniProt P14600 1-407).
T4 construct: whole, on cells; Used as membrane preparations of transfected CHO cells; also called rNK1; rat neurokinin-1 receptor
T4 sequence (P14600 whole entry): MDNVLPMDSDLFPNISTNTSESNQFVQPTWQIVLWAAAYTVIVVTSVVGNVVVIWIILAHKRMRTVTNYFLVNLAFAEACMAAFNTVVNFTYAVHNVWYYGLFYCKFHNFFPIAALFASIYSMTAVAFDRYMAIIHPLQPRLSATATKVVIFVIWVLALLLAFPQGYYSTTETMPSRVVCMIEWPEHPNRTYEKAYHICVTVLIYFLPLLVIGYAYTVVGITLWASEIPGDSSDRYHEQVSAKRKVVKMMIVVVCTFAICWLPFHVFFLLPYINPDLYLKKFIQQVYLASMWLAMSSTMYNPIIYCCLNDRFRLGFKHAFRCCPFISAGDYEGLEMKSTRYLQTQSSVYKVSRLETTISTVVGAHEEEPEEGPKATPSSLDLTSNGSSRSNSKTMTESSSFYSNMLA
The test can be described thus: radioligand competition vs [3H]substance P, membranes of rNK1 CHO cells.
Y[dA]GFPLW-{NMe(benzyl)} [TyrDAlaGlyPheProLeuTrpNMeBn (TY010)] had a Ki of 267 nM.

Consider Y[dA]GFPLW-NHBn [TyrDAlaGlyPheProLeuTrpNHBn (TY008)], for which the Ki is 803 nM.

Y[dA]GFPLW-{NH(3,5-(CF3)2-benzyl)} [TyrDAlaGlyPheProLeuTrpNHBn(CF3)2 (TY012)] registered a Ki of 32.6 nM.

Y[dA]GFPLW-{NMe‑Bn(CF3)2} [TyrDAlaGlyPheProLeuTrpNMeBn(CF3)2 (TY013)] showed a Ki of 6.05 nM.

For Y[dA]GFM-NH2 [TyrDAlaGlyPheMetNH2 (TY040)], the affinity corresponds to a Ki of 1100 nM.

On to MPLW-{NHBn(CF3)2} [MetProLeuTrpNHBn(CF3)2 (TY051)], for which the Ki is 62 nM.

Y[dA]GFPLW-OBn [TyrDAlaGlyPheProLeuTrpOBn (TY011)] had a Ki of 659 nM.
